Reference: a protein production outcome set (Wang et al. 2014)

test: label from the status in PepcDB records

Sequence	protein production
MMNDSKARYGSITRFFHWSMAILVSWQFLKFFDRINDGEHWVGETLVPWHISIGSLILVLIVLRLGWTVKEKGNRPEHGSIIGVLAKIGHGLLYVALVLMPVTGIFYMVGNGYGLSAFNLEIIAKGEEVSWLINIGSLHSYIAWGLLFLVAGHIGMAFVHQFIIKDGTLKRMM	failed
MMNTSDNHALGDFLRARRQRLDPATFGFPAGRRRTPGLRREEVAQLASISPTWYTWLEQGRGGAPSREVLERIARGLRLTTPEREHLFILAFGHPPQTRLTVTDDMTPRLQRVLDAFTIPAIIRTASW	failed
MMPLILSNTGEEVVIKKISGSDKTRTFLNSIGFVVGTNVKIVSKIDGNLIIDVKDTRVALDKKMASRIIILEHHHHHH	failed
MMPRLFLLAGLVSAPPLSLDPEPPSSIKMTYSGIVDAGSTGTRLNIYGFLDGEIRHQGLFTNTSRLASIEDDEEIKTSIRELFAHAEPFYSNIKKMPIGFYGTAGFRTLDKSRSDHVLDLIRSELKDYNLKEAEVINGVDEGKLALMALVLSNRGTDAGHRSLGIVDMGGGSTQISLLERDGKVISESIDLGITVLSLSDPDECKIEGDAEQESCASHIASKLAGVAIRPFLNSVDDLYLLSYFHDEFGKVIRSEKTSMREVKDEFYKRCNLLESHECRRLFYLISFIKSLGIEDTKAIHQIDTNNGINITWASGKGYELNKKYN	failed
MMRHSSLRLIIGGLILLLFVLNVFSKEQGSHSHKRSHSAKRFSRDSNSARERRPNIILILTDDQDVELGSLNFMPRTLRLLRDGGAEFRHAYTTTPMCCPARSSLLTGMYVHNHMVFTNNDNCSSPQWQATHETRSYATYLSNAGYRTGYFGKYLNKYNGSYIPPGWREWGGLIMNSKYYNYSINLNGQKIKHGFDYAKDYYPDLIANDSIAFLRSSKQQNQRKPVLLTMSFPAPHGPEDSAPQYSHLFFNVTTHHTPSYDHAPNPDKQWILRVTEPMQPVHKRFTNLLMTKRLQTLQSVDVAVERVYNELKELGELDNTYIVYTSDHGYHLGQFGLIKGKSFPFEFDVRVPFLIRGPGIQASKVVNEIVLNVDLAPTFLDMGGVPTPQHMDGRSILPLLLSRNRAVRDNWPDSFLIESSGRRETAEQIAESRARLQIERRNMKLANSSLLEDFLEGAGESTTIVSSSSTAATLMSSTAQQPEDGEEEVETDNEEDDVDGDGAMDSSAAALEEDDLDDAAFEEGDEELDQEFQQNNDLPLAPYITKMMRLNSECSDPALLKNCLPGQKWKCVNEEGRWRKHKCKFHLQLEHQLAAMPRKQYQRNCACFTPDGVVYTKIRAPSAGLHRVNKRTHNGPGRRRNKREVFHTELPDEMEELLDLHQVVDQLVDHTHRSKRDLPASSNETIAQVIQQIQSTLEILELKFNEHELHASNSSGNSYERGEKYTKSGGHRCFVDATTAKVNCSNVIYDDEKTWRTSRTQIDMLIKLLKDKIGKLKEMKKQLRESNKQALAAGRRNDNRRRNDQSVLDSGAGPEFNMSYFTEISSTPRSNVVGQTEVFQGYGSASAFDSLEQTQSHRFTPRAECYCEPDVGENHADSKEMAREARRKLKEERQRKKERKRIKKARLEKECLSEKMNCFSHDNQHWRTAPLWNDSPFCFCMNANNNTYSCLRTINGTHNFLYCEFTTGLITFYNLTIDRFETINRAAGLTPGERSHMHDALDQLKSCRGRSCSIRRHQNHLEGGSSAPLLPINQVHRNNKRKHSPLAGAVGNYAFVGPRLDMEALPPIKRRKLSKYNRLTGSQQSHMKRRPWKQTPLQQSPRFLRTHSVTPAQA	failed
MMRKHFLSRSSLRAIVLCVSLGTLSAQAVSVPNAIAQSSLPASPLDSFYSSIPSGENTVAGTVLSEQVIPTGLLDATIKVKRIAYSSTHPSGRMVPTIATILTPTAPWTGSGPRPAALLAPGTQGAGDQCAPSKLITVGAEYELFPAIMLLRRGWTVAITDYQGLGTIGAHTYMNRKAQGAALLDLGRAVVNVKYPEVRKDAPLILWGYSQGGGASAAAAEMHASYAPDVNIRGGFAGGVPAELLATARSLEGSPLLGALGYAISGMYETHPELRLEVDDLLNDRGKQWIIDSGTHCLLDSFRTMPIPDSRVMTRSGQRLTDLLGSKVFHSYFEEQRLGKVAPDVPMFVSQGANDDIIPAQQARDMVSNWRDLGADVTYFEDPAPLLVRMEGHVRPLVTSFDPALQWAEKLLGSEVINPPSAS	failed
MMRRQRDEQQSRVFYDLSSLVLNLLRSPPMPISLPDHFPDPPARIRPPFSSHRFSSSSPSLAHISPSGFASLLLGISVALMLCGSVTFFIGFLLMPWVLALILVFYVAGIVSAISMVGRSILCYVLTPPSPSGKEISEWKLL	failed
MMRRVSLGSRLALLFAACTATVSLGAGLLFSRASEQHFVELDQQLLDSRLSLFRTQLAGVSTADELQARLPALRDELSHQADLALRISASNGATWFESRSGLPHAAQATGLATLHAPGIDYRSLSVPLTQGAMQSPRLTLYLDITHHQHFLQGMQRLIWLTVGLSALITALLGAWAARSGLRPLRQMGQVAASVSARSLTTRLPVAQMPEELAELASSMNAMLQRLDDAFQRLSAFSADIAHELRTPLSNLLTHTQVTLTRPRSLEEYREALHGNLEELQWMAQMINDMLFLAKADHGLLVPGDAPLALHDEVDALLEYYAPLAEDSDVQMLREGEAVLHGDQHMLRRALSNLLDNAMRFTPAGGQIKVTLGPGPTINVANTGLAIDPAALPRLFDRFYRVDPARREGSSEHAGLGLAITRSIVQAHGGCIRAECEGGWTRFVIEFTQDR	failed
MMSAQRVVRTVRTARAISTALAVAIVLGTGVAWSSVRSFEDGIFHMSAPSLGHGGDDGAIDILLVGLDSRTDAHGNPLSAEELATLHAGDEEATNTDTIILIRVPNNGKSATAISIPRDSYVAAPGLGKTKINGVYGQTRETKRAGLVQAGASPTEAAAAGTEAGREALIKTVADLTGVTVDHYAEIGLLGFALIADALGGVDVCLKEPVYEPLSGADFPAGRQKLNGPQALSFVRQRHDLPRGDLDRVVRQQAVMAALAHRVISGQTLSSPATLKRLEQAVQRSVVLSSGWDIMDFVRQLQKLAGGNVAFATIPVLDGAGWSDDGMQSVVRVDPRQVQDWVVGLLHEQDQGKTDELAYTPAKTTANVVNDTDINGLAAAVSKVLSSKGFTTGSVGNNDGDHVPGSQVRAAKADDLGAQQVAKELGGLPVVADASIAPGSVRVVLANDYSGPGSGLGGSDPNGVVSPARAFNLGSADDTTPPPSPILTAGSDAPECIN	failed
MMSQISLADLNAADKADFVAALANVVEYSPWIAEKLAGQRPFTGINQLHAALMAAIQSAEPDVQLALIRAHPDLANKTQRAAGLTAESTDEQNSAGLDRLSDAEYAAFERVNNAYREKFGFPYIVCVRRHTKDSVLRDFETRLLNIAKTETRRAIEEIGRISALRLDQLVVADDKLKVHGRLSTHVLDNHAGKPAPGIPVELIELASLGESRVIARTVTNADGRTDQPLIGGRPLPIGRYELRFRVAKYYAERNVPLSEPPFLDEIPLRFAISEPENHYHVPLLVTPWSYATYRGS	failed
MMTGRKRGMIMSRRIITIGRQYGSNGRRIAKKLSEKLGIHYYDKELIKLASEQNDISYDELVKVDEKRANPWRYPVEDPAQMESRFRFEPMNDVLFYTQAQIITRLADTEDCIIVGRCANDILKSRPTSRSIFIHAPLDYRLQTVMERTSLEEKEALSLIKKVDKQRKFYYNYYTDKKWEEMSQYDLCLDSSAMSEDEILNVLTALYESIL	failed
MMTKKDLPLRQLLKLRNSWIAWVVFLVSVVATVLLWQVSIRLVEDRTEARFRTQSLQLKTAIEERLLNYEQVLAGSAGLFAVTGKVTRDQWKEYVDNVDINRYYPGIEGIGYVERIGVREMADHIASVRAEGLYNYLVKPLGTGPYYYPMVYLEPGTERNRKALGYDAFSDPIHRTAMEQARDDAIPTVTGKVVLVQESVAEDQAGFLMYYPVFQGGEIPEIRAERRMMLAGYVFSAFRMNNLIDGIVGLISPFLDVRIYDSGVVARDTLMYGSNLGSLDNEFSFEMSQTIRHGGREWLLQTRSTPAFDYLAADPRPPIVLGSGLAISLLLWLFVLALIRSRLIAQVSAGRYRAITEGAANVTLVMDRRGRPLYASPSSRDILGFDPDKVEALEFEKLVHMDDWSHLQRGFEESMASPGKQMPVVRARVRDADGQWRDMEGTFTAMLSVPGVNGVVLSLRDLTQLKAAQSELHRLAFYDPLTGLANRQLFRDRLNHVVRRSRRSGEAAALMFLDLDGFKRINDTLGHDAGDELLRQVAQWLEGCVREEDSVARLGGDEFVVLLSRISGSEAAGKVAENILRRLCQRIRLNDHEVGVTVSIGITMIPHDSEDAGALMKYADLAMYRAKELGRNTYQFFTPAMNIQAARRLLQQEELATALDGDRFVLHYQPKVDLATQRVIGVEAFLRWHHPEKGLVSAQQFITLAEETGLIIRLGELALRQACIQVQALERAGFESLKMAVNFSVRQLTDSGFLDMIRRVITETGVSPERLELEMPAELLNEDPRMLRELLVSLNDLGVCLILDDFGTGSCSLVALQQLPLDVIKIDHRFIRDIPYNVSATDVASAVIALAHKLHLTVVAEGVETLQQLTFLKSAGCAQCQGNLFSYPLDEDALIGFLIRQYEKPLIS	failed
MMTLVILLLFLLFCVLVFWISITFSIKYVLIFTAFLFSGLLVYYSFLTIAGLIHRNSKRKDRTLEHYPSVDIFIPAHNEGVVIKDTLEAMAKIEYPGKLTIYLLNDNSQDETPEIGDDFDKAYAHIRHIRVPPGEPKGKSRVLNYGLSISDGEYFCVYDADNQPEPHALRMLVEHAETTEDAVGAVGHVRTVNEKRNWLTRMISLEFQIFQLLMQSGRWLLFQTGSLTGTNMLLRRSALEELGGYDPYAIAEDAELTLRITQKGYLLPIVPESVTWEQEPEHLKILIKQRTRWLQGNLYILEKMFSSLSFFKGKLLVHSLQQVLVYVVFWLFLIISNVWFVIGLLGIFQIQYSIPLLFMWYVAYITYVSQLFSAQSVERTFTPTNIFISVIMYFTYAQLFTYLFIRSLILYLRAKSKKQVIGWDKTVRFKKDK	failed
MMVAVIPAYNEEKNIISVLKDLSDINIDVIVVDDGSTDKTKTIINEFLEKNEFKNKIFPIFKEKNEGKSKALEDGTNYAINLNYDAIAYLDGDYQHKPSDIIPMYEKMKSENADAVFGIRKYKHIPFHRQFSNFLASVIMSITVSVFSGNFHIFRDIQCGFRIIKSEFLKNSYFGDGYSVEHLIALQLAKKNAKITEEYVTIDYHNDAISYITTKKILDVVKEVAKYVLSKH	failed
MMVETATVVQYQNGKALVRCSVKTACGNCGAKADCGTQLLSSLVKERVPHFELSVNMPLVAGDMVKIGLPEQTLLWSIFWIYVVPLMVLIGSAVGFTQLFANELVVVFMMFICTSMTFFSIKKIIDKKQLSQLNPIFLGRVE	failed
MMVPHLTTALTGPLLTLEKRLLDNMPRIEHWFRSQWQEYGAPFYASVDLRNAGFKLAPVDTNLFPGGFNNLNPDFLPLCIQAAMVAVEKICPDARRLLLIPENHTRNTFYLRNVHALTHILRQAGLEVRIGSIAPEITAPTFLETHDGHSILLEPVRRKANRLELDNFDSCAILLNNDLSGGIPDILQGLEQSLIPPLHAGWATRRKSNHFTAYDRVVEEFAPLIDIDPWLLNPYFDTCGGLDFHARLGEEQLAEKVDSLLAKIRRKYAEYGVKQEPFVIVKADAGTYGMGIMTVKSADDVRDLNRKQRNKMSVVKEGLKVSEVILQEGVYTFEHLKDAVAEPVIYMMDHFVVGGFYRVHTSRGADENLNAPGMHFEPLTFETPCSTPDCAGAPDAAPNRFYAYGVVARLALLAATIELQETDPDLLDERT	not failed
MNAEDFPTPDADVESVTPETLKSRIDDGESVTILDARMSGDYEEWHIDGENVESINVPYFHFLEDELDADIIADVPDDREVTVLCAKGGASEYVAGTLADRGYDVHHLEDGMNGWARIYETVEVTDYDGAGTLLQYQRPSSGCLGYLVYDDGEAAIIDPLRAFADRYFDDADELGVDLKYALDTHIHADHISGVRGLDAAGVEGVIPAAAVDRGVTYAAEQSSASPVSQARQDADDLTTAEDGDTFEVGDVTIETVATPGHTTGMTSYLVDDSLLATGDGLFIESVARPDLEEGDEGAPDAARMLYESLQERVLTLPDDTLIGGAHFSDAAEPANDGTYTAPIGQLVEEMDALTMDEDDFVETILADMPPRPANYEDIIATNLGQNTVDDEEAFTLELGPNNCAASQESLAGD	failed
